Experimental data: publication PMC3628515 (The Journal of Cell Biology, 2013)

Target: T1, FAP100-HA (FAP100/Mia1p with a triple HA tag, in the rescued strain mia1R) (C. reinhardtii, UniProt A8I4E9 1-576)
T1 sequence (looked up): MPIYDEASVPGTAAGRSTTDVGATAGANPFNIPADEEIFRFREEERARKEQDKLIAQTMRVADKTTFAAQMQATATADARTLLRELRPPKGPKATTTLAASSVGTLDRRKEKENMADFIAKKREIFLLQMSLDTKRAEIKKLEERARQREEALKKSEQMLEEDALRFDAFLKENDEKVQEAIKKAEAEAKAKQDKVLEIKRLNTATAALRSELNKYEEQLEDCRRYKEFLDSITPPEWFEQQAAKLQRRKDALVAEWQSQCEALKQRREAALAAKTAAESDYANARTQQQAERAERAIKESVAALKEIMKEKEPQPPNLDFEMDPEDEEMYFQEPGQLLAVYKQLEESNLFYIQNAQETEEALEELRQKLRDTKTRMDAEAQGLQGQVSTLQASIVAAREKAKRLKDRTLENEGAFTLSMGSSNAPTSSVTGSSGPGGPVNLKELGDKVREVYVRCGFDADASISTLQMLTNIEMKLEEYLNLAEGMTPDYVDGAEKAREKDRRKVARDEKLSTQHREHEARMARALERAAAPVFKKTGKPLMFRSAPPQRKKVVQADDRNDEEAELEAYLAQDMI
Assay: affinity purification with mass spectrometry

B1: FAP73 (Mia2p), endogenous (natural protein, UniProt M1V4Y8 1-308, looked up)
chain: MDEEGSATARAKMMPQTLVLDHVSPATRLLEKRRQMFEVQEALEAQKQDFNRKEEVFKRREEALKLKDLELQESLIRFSKFLQENDSKRARAEKKANDEIKARIQKEKEIEQLTEVLEELKSEKERILEVLEKNMRYQHYLESVLEVADEYQEVADLLLRHATLSATNADLKDHQRKCSELAEKVRTELQIYVKQKTDEILNLNNQVAKLKTELEGYEAEAMVQEAKKDSSLQIASQRTLEYGQVVLSADNIFNRCRSKSSIGHPAESNPLHQLDVIGNFVSDLGSIIKQFKQEQAKRASLASRAEIE
- stoichiometry N: 1.83 to 2.89 FAP73 per FAP100
